Values belong to the molecule of their own block, whether it stands above or below them.
Tests used:
[1] = target: Src homology 2 domain containing protein tyrosine phosphatase substrate 1 (SHPS-1), endogenous in porcine aortic smooth muscle cells (porcine) (UniProt F1S887); assay: SHPS-1 immunoprecipitated from transfected pSMCs, immunoblot for FLAG, densitometry
[2] = target: T1, integrin associated protein (IAP), endogenous in porcine aortic smooth muscle cells (porcine) (UniProt Q9GKE8); assay: pSMCs incubated 2 h with B6H12 (4 ug/ml); SHPS-1 immunoprecipitated, immunoblot for IAP, densitometry
T1 sequence (looked up): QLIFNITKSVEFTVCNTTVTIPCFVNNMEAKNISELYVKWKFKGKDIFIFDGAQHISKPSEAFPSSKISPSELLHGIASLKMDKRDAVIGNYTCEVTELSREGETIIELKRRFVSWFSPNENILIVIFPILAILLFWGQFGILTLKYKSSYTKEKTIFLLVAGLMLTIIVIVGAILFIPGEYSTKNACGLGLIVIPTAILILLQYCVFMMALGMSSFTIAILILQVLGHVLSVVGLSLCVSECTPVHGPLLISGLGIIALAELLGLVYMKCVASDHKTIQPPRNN

[3] = target: T2, Src homology 2 domain containing protein tyrosine phosphatase substrate 1 (SHPS-1), endogenous in porcine … (porcine, UniProt F1S887 31-509); assay: cell-based or functional assay
T2 sequence: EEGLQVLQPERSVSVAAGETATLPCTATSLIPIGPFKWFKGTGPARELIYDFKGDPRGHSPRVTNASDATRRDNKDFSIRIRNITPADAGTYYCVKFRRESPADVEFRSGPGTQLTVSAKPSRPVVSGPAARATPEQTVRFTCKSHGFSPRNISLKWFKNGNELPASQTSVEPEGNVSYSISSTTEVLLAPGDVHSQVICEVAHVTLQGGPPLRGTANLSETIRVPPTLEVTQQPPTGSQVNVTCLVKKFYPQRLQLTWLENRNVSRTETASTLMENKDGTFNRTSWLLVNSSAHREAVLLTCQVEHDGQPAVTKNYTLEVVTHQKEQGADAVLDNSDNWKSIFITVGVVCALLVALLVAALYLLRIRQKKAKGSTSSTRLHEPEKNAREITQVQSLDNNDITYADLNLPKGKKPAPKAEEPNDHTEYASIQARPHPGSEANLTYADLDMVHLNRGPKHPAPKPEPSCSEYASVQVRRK

- % reduction in IAP association with SHPS-1 compared with cells expressing IAP fl [1]: 88%
Molecule: IAP with truncation of extracellular domain at residue 135 and containing a C-terminal FLAG epitope (IAPcyto) (from UniProt Q9GKE8 135-303) (receptor)

- % reduction of the interaction between IAP and SHPS-1 [2]: 75%
B1: anti IAP monoclonal antibody B6H12 (antibody, from another filing)
scFv: EVQLVESGGDLVKPGGSLKLSCAASGFTFSGYGMSWVRQTPDKRLEWVATITSGGTYTYYPDSVKGRFTISRDNAKNTLYLQIDSLKSEDTAIYFCARSLAGNAMDYWGQGTSVTVSSGGGGSGGGGSGGGGSDIVMTQSPATLSVTPGDRVSLSCRASQTISDYLHWYQQKSHESPRLLIKFASQSISGIPSRFSGSGSGSDFTLSINSVEPEDVGVYYCQNGHGFPRTFGGGTKLEIKEQKLISEEDL

- IGF-1 stimulated cell proliferation, cells incubated with B6H12 [3]: 1.03 fold
- IGF-1 stimulated increase in SHPS-1 phosphorylation, cells pretreated with B6H12 [3]: 0.93 fold
- fold increase in SHPS-1 phosphorylation in response to IGF-1, control cells (no antibody) [3]: 4.1 fold
- fold increase in cell proliferation with IGF-1, no antibody [3]: 2.2 fold
B2: integrin associated protein (IAP), endogenous in porcine aortic smooth muscle cells (receptor, UniProt Q9GKE8 19-303, looked up)
chain: T1 sequence (looked up)
